Measured values as given in publication PMC9243173, “Iron-regulated assembly of the cytosolic iron–sulfur cluster biogenesis machinery” (The Journal of Biological Chemistry, 2022).

What was measured:
Experiment in all cases: affinity purification with mass spectrometry; anti-HA beads on lysates of Flp-In 293 cells expressing the 3HA-3FLAG-tagged bait (NUBP2, wildtype or mutant CIAO3); targeted proteomics assay (parallel reaction monitoring) of CIA components and substrates; CIAO3 purifications normalised to CIAO3; wildtype CIAO3 cells also treated with FAC or DFO for 8 h
Conditions in all cases: partners not purified
[1] = target: T1, 3HA-3FLAG-CIAO3-C71S (human, UniProt Q9H6Q4 1-476, C71S)
T1 construct: human CIAO3 (NARFL), as m13, with C71S (N-terminal Fe-S cluster site); also called C71S mutant; source: Flp-In T-REx 293, stably expressed, induced with doxycycline, in lysate; not shown: 3xHA, N-terminal, kept; 3xFLAG, N-terminal, kept

[2] = target: T2, 3HA-3FLAG-CIAO3-C71S/C190S/C395S (human, UniProt Q9H6Q4 1-476, C71S | C190S | C395S)
T2 construct: human CIAO3 (NARFL), as m13, with C71S, C190S and C395S; also called C71S/C190S/C395S mutant; source: Flp-In T-REx 293, stably expressed, induced with doxycycline, in lysate; not shown: 3xHA, N-terminal, kept; 3xFLAG, N-terminal, kept

[3] = target: T3, 3HA-3FLAG-CIAO3, wildtype (human, UniProt Q9H6Q4 1-476)
T3 construct: human CIAO3 (NARFL) cDNA, amplified with primers from the start codon to the stop codon, in pcDNA5/FRT with an N-terminal tandem 3xHA-3xFLAG tag; also called 3HA-3FLAG-tagged CIAO3; wildtype CIAO3; source: Flp-In T-REx 293, stably expressed, induced with doxycycline, in lysate; not shown: 3xHA, N-terminal, kept; 3xFLAG, N-terminal, kept

[4] = target: T4, 3HA-3FLAG-CIAO3-C190S/C395S (human, UniProt Q9H6Q4 1-476, C190S | C395S)
T4 construct: human CIAO3 (NARFL), as m13, with C190S and C395S (C-terminal Fe-S cluster site); also called C190S/C395S mutant; source: Flp-In T-REx 293, stably expressed, induced with doxycycline, in lysate; not shown: 3xHA, N-terminal, kept; 3xFLAG, N-terminal, kept
T4 sequence (Q9H6Q4 whole entry C190S/C395S): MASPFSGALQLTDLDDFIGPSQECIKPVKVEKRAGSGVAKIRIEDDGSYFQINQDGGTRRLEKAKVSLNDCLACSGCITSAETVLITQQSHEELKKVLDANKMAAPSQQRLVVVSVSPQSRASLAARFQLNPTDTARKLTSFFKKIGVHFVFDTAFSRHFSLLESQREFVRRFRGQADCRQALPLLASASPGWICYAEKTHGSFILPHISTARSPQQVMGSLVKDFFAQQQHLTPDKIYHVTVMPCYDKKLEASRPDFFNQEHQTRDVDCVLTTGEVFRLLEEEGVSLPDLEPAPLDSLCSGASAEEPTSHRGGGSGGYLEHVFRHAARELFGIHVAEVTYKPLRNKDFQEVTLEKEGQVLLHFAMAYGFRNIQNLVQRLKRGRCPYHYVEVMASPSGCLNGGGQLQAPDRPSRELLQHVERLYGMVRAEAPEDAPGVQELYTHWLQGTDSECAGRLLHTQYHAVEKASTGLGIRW

T2 sequence (Q9H6Q4 whole entry C71S/C190S/C395S): as the sequence (Q9H6Q4 whole entry C190S/C395S) above, with C71S counted along it
T1 sequence (Q9H6Q4 whole entry C71S): as the sequence (Q9H6Q4 whole entry C190S/C395S) above, with C71S, S190C, S395C counted along it
T3 sequence (Q9H6Q4 whole entry): as the sequence (Q9H6Q4 whole entry C190S/C395S) above, with S190C, S395C counted along it

Row | Binder | fold decrease against wildtype CIAO3 [1] | fold change against wildtype CIAO3 [2] | fold reduction against wildtype CIAO3 [1] | fold reduction in iron-deficient (DFO) against iron-replete (FAC) conditions [3] | fold reduction against wildtype CIAO3 [2] | fold reduction against wildtype CIAO3 [4]
1 | cytosolic iron-sulfur assembly component 2B (CIAO2B) (natural protein, human (endogenous in Flp-In T-REx 293), UniProt Q9Y3D0 1-163, looked up, CIAO2B (cytosolic iron-sulfur assembly component 2B), component of the CIA targeting complex, endogenous; source: endogenous, Flp-In T-REx 293 lysate) MVGGGGVGGGLLENANPLIYQRSGERPVTAGEEDEQVPDSIDAREIFDLIRSINDPEHPLTLEELNVVEQVRVQVSDPESTVAVAFTPTIPHCSMATLIGLSIKVKLLRSLPQRFKMDVHITPGTHASEHAVNKQLADKERVAAALENTHLLEVVNQCLSARS | ~5 fold | 2 fold |  |  |  | 
2 | MMS19 nucleotide excision repair protein homolog (MMS19) (natural protein, human (endogenous in Flp-In T-REx 293), UniProt Q96T76 1-1030, looked up, MMS19 nucleotide excision repair protein homolog, component of the CIA targeting complex, endogenous; source: endogenous, Flp-In T-REx 293 lysate) MAAAAAVEAAAPMGALWGLVHDFVVGQQEGPADQVAADVKSGNYTVLQVVEALGSSLENPEPRTRARAIQLLSQVLLHCHTLLLEKEVVHLILFYENRLKDHHLVIPSVLQGLKALSLCVALPPGLAVSVLKAIFQEVHVQSLPQVDRHTVYNIITNFMRTREEELKSLGADFTFGFIQVMDGEKDPRNLLVAFRIVHDLISRDYSLGPFVEELFEVTSCYFPIDFTPPPNDPHGIQREDLILSLRAVLASTPRFAEFLLPLLIEKVDSEVLSAKLDSLQTLNACCAVYGQKELKDFLPSLWASIRREVFQTASERVEAEGLAALHSLTACLSRSVLRADAEDLLDSFLSNILQDCRHHLCEPDMKLVWPSAKLLQAAAGASARACDSVTSNVLPLLLEQFHKHSQSSQRRTILEMLLGFLKLQQKWSYEDKDQRPLNGFKDQLCSLVFMALTDPSTQLQLVGIRTLTVLGAQPDLLSYEDLELAVGHLYRLSFLKEDSQSCRVAALEASGTLAALYPVAFSSHLVPKLAEELRVGESNLTNGDEPTQCSRHLCCLQALSAVSTHPSIVKETLPLLLQHLWQVNRGNMVAQSSDVIAVCQSLRQMAEKCQQDPESCWYFHQTAIPCLLALAVQASMPEKEPSVLRKVLLEDEVLAAMVSVIGTATTHLSPELAAQSVTHIVPLFLDGNVSFLPENSFPSRFQPFQDGSSGQRRLIALLMAFVCSLPRNVEIPQLNQLMRELLELSCCHSCPFSSTAAAKCFAGLLNKHPAGQQLDEFLQLAVDKVEAGLGSGPCRSQAFTLLLWVTKALVLRYHPLSSCLTARLMGLLSDPELGPAAADGFSLLMSDCTDVLTRAGHAEVRIMFRQRFFTDNVPALVQGFHAAPQDVKPNYLKGLSHVLNRLPKPVLLPELPTLLSLLLEALSCPDCVVQLSTLSCLQPLLLEAPQVMSLHVDTLVTKFLNLSSSPSMAVRIAALQCMHALTRLPTPVLLPYKPQVIRALAKPLDDKKRLVRKEAVSARGEWFLLGSPGS | ~5 fold | 2 fold |  |  |  | 

Other lines, results leading:

Row | fold decrease against wildtype CIAO3 [1] | fold change against wildtype CIAO3 [2] | fold reduction against wildtype CIAO3 [1] | fold reduction in iron-deficient (DFO) against iron-replete (FAC) conditions [3] | fold reduction against wildtype CIAO3 [2] | fold reduction against wildtype CIAO3 [4] | Binder
3 | ~5 fold | 2 fold |  |  |  |  | probable cytosolic iron-sulfur protein assembly protein CIAO1 (natural protein, CIAO1, component of the CIA targeting complex, endogenous; source: endogenous, Flp-In T-REx 293 lysate) not shown
4 |  |  | > 32 fold | ~4 fold | > 32 fold | > 32 fold | nucleotide-binding protein 1 (NUBP1) (natural protein, human (endogenous in Flp-In T-REx 293), UniProt P53384 1-320, looked up, also called NBP35; source: endogenous, Flp-In T-REx 293 lysate) MEEVPHDCPGADSAQAGRGASCQGCPNQRLCASGAGATPDTAIEEIKEKMKTVKHKILVLSGKGGVGKSTFSAHLAHGLAEDENTQIALLDIDICGPSIPKIMGLEGEQVHQSGSGWSPVYVEDNLGVMSVGFLLSSPDDAVIWRGPKKNGMIKQFLRDVDWGEVDYLIVDTPPGTSDEHLSVVRYLATAHIDGAVIITTPQEVSLQDVRKEINFCRKVKLPIIGVVENMSGFICPKCKKESQIFPPTTGGAELMCQDLEVPLLGRVPLDPLIGKNCDKGQSFFIDAPDSPATLAYRSIIQRIQEFCNLHQSKEENLISS
5 |  |  | > 32 fold | ~4 fold | > 32 fold | > 32 fold | nucleotide-binding protein 2 (NUBP2), endogenous (natural protein, human (endogenous in Flp-In T-REx 293), UniProt Q9Y5Y2 1-271, looked up, also called CFD1; source: endogenous, Flp-In T-REx 293 lysate) MEAAAEPGNLAGVRHIILVLSGKGGVGKSTISTELALALRHAGKKVGILDVDLCGPSIPRMLGAQGRAVHQCDRGWAPVFLDREQSISLMSVGFLLEKPDEAVVWRGPKKNALIKQFVSDVAWGELDYLVVDTPPGTSDEHMATIEALRPYQPLGALVVTTPQAVSVGDVRRELTFCRKTGLRVMGIVENMSGFTCPHCTECTSVFSRGGGEELAQLAGVPFLGSVPLDPALMRTLEEGHDFIQEFPGSPAFAALTSIAQKILDATPACLP
